Data on 15 molecules can be found in WO2025083273A1 (dated 2025).

This experiment deals with T1, human DR3 (TNFRSF25) expressed on cells (human, UniProt Q93038 25-417).
T1 sequence: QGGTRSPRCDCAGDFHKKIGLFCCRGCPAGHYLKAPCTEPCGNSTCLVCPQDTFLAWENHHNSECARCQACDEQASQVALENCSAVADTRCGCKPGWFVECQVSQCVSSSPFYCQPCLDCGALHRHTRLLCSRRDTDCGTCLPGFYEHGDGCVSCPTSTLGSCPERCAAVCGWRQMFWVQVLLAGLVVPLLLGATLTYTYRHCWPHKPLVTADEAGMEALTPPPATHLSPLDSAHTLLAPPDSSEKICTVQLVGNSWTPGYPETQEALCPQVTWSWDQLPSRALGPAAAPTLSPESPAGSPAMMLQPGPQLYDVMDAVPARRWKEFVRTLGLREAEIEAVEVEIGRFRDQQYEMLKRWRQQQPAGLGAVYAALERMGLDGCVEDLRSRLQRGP
In words: cell-based or functional assay.

B1: VHg1/VLg13 (antibody, human IgG1, V domains shown)
VH: QVQLVQSGGGLVQPGGSLRLSCAASGFTFSSYAMSWVRQAPGKGLEWVSTISDGDSYSYFPDSVKDRFTISRDNSKNTLYLQMNSLRAEDTSVYYCARDRIYGSVQYYAMDYWGQGTLVTVSS
VL: DIQMTQSPSSLSASVGDRVTITCRASESVEFSGTSLMQWYQQKPGKAPKLLIYAASNVESGVPSRFSGSGSGTDFTFTISSLQPEDIATYYCQQSRKLPYTFGQGTKLEIK
With B1, the “Signal (FLU)” value was 2.81e+06 FLU.

B2: VHg9/mVL (antibody, human IgG1, V domains shown)
VH: EVQLVESGGGLVKPGGSLRLSCAASGFTFSSYAMSWVRQAPGKGLEWVSTISDGDSYSYFPDSVKDRFTISRDNAKNSLYLQMNSLRAEDTAVYYCARDRIYGSVQYYAMDYWGQGTLVTVSS
VL: DIVLTQSPASLAVSLGQRATISCRASESVEFSGTSLMQWYQQRPGLPPKLLIYAASNVESGVPARFSGSGSGTDFSLNIHPVEEDDIAMYFCQQSRKLPYTFGGGTKLEIN
As for B2, the “Signal (FLU)” value is 3.35e+06 FLU.

B3: VHg10/VLg1 (antibody, human IgG1, V domains shown)
VH: EVQLVESGGGLVQPGGSLRLSCAASGFTFSSYAMSWVRQAPGKGLEWVSTISDGDSYSYFPDSVKDRFTISRDNSKNTLYLQMNSLRAEDTAVYYCARDRIYGSVQYYAMDYWGQGTLVTVSS
VL: DVVMTQSPDSLAVSLGERATINCRASESVEFSGTSLMQWYQQKPGQPPKLLIYAASNVESGVPDRFSGSGSGTDFTLTISSLQAEDVVVYYCQQSRKLPYTFGGGTKVEIK
For the molecule B3, the “Signal (FLU)” value was 2.54e+06 FLU.

B4: VHg3/VLg5 (antibody, human IgG1, V domains shown)
VH: EVQLVQSGGGLVKPGGSLRLSCAASGFKFSSYAMSWVRQAPGKGLEWLSTISDGDSYSYFPDSVKDRFIISRDNAKNSLYLQMNSLRVEDTGVYYCARDRIYGSVQYYAMDYWGQGTLVTVSS
VL: EIVLTQSPGTLSLSPGERGTLSCRASESVEFSGTSLMQWYQQKPGQAPRLLIYAASNVESGIPDRFSGSGSETDFTLTISRLEPEDLAVYYCQQSRKLPYTFGQGTRLEIK
Regarding B4, the “Signal (FLU)” value was 2.43e+06 FLU.

B5: VHg9/VLg6 (antibody, human IgG1, V domains shown)
VH: EVQLVESGGGLVKPGGSLRLSCAASGFTFSSYAMSWVRQAPGKGLEWVSTISDGDSYSYFPDSVKDRFTISRDNAKNSLYLQMNSLRAEDTAVYYCARDRIYGSVQYYAMDYWGQGTLVTVSS
VL: DVVMTQSPPSLPVTPGEPASISCRASESVEFSGTSLMQWYLQKPGQSPQVLIYAASNVESGVPDRFSGSGSGTDFTLKISRVEAEDVGVYYCQQSRKLPYTFGQGTRLEIK
For B5, the “Signal (FLU)” value amounted to 2.32e+06 FLU.

B6: VHg9/VLg13 (antibody, human IgG1, V domains shown)
VH: EVQLVESGGGLVKPGGSLRLSCAASGFTFSSYAMSWVRQAPGKGLEWVSTISDGDSYSYFPDSVKDRFTISRDNAKNSLYLQMNSLRAEDTAVYYCARDRIYGSVQYYAMDYWGQGTLVTVSS
VL: DIQMTQSPSSLSASVGDRVTITCRASESVEFSGTSLMQWYQQKPGKAPKLLIYAASNVESGVPSRFSGSGSGTDFTFTISSLQPEDIATYYCQQSRKLPYTFGQGTKLEIK
Consider B6, for which the “Signal (FLU)” value amounted to 3.33e+06 FLU.

B7: VHg3/VLg1 (antibody, human IgG1, V domains shown)
VH: EVQLVQSGGGLVKPGGSLRLSCAASGFKFSSYAMSWVRQAPGKGLEWLSTISDGDSYSYFPDSVKDRFIISRDNAKNSLYLQMNSLRVEDTGVYYCARDRIYGSVQYYAMDYWGQGTLVTVSS
VL: DVVMTQSPDSLAVSLGERATINCRASESVEFSGTSLMQWYQQKPGQPPKLLIYAASNVESGVPDRFSGSGSGTDFTLTISSLQAEDVVVYYCQQSRKLPYTFGGGTKVEIK
As for B7, the “Signal (FLU)” value was 2.46e+06 FLU.

B8: VHg9/VLg1 (antibody, human IgG1, V domains shown)
VH: EVQLVESGGGLVKPGGSLRLSCAASGFTFSSYAMSWVRQAPGKGLEWVSTISDGDSYSYFPDSVKDRFTISRDNAKNSLYLQMNSLRAEDTAVYYCARDRIYGSVQYYAMDYWGQGTLVTVSS
VL: DVVMTQSPDSLAVSLGERATINCRASESVEFSGTSLMQWYQQKPGQPPKLLIYAASNVESGVPDRFSGSGSGTDFTLTISSLQAEDVVVYYCQQSRKLPYTFGGGTKVEIK
In the case of B8, the “Signal (FLU)” value worked out at 2.23e+06 FLU.

B9: VHg1/VLg5 (antibody, human IgG1, V domains shown)
VH: QVQLVQSGGGLVQPGGSLRLSCAASGFTFSSYAMSWVRQAPGKGLEWVSTISDGDSYSYFPDSVKDRFTISRDNSKNTLYLQMNSLRAEDTSVYYCARDRIYGSVQYYAMDYWGQGTLVTVSS
VL: EIVLTQSPGTLSLSPGERGTLSCRASESVEFSGTSLMQWYQQKPGQAPRLLIYAASNVESGIPDRFSGSGSETDFTLTISRLEPEDLAVYYCQQSRKLPYTFGQGTRLEIK
Regarding B9, the “Signal (FLU)” value was found to be 1.99e+06 FLU.

B10: VHg2/mVL (antibody, human IgG1, V domains shown)
VH: QMQLVQSGGGLVKPGGSLRLSCAASGFTFSSYAMSWIRQAPGKGLEWVSTISDGDSYSYFPDSVKDRFTISRDNAKNSLYLQMNSLRAEDTAVYYCTRDRIYGSVQYYAMDYWGRGTLVTVSS
VL: DIVLTQSPASLAVSLGQRATISCRASESVEFSGTSLMQWYQQRPGLPPKLLIYAASNVESGVPARFSGSGSGTDFSLNIHPVEEDDIAMYFCQQSRKLPYTFGGGTKLEIN
For B10, the “Signal (FLU)” value is 2.57e+06 FLU.

B11: VHg5/mVL (antibody, human IgG1, V domains shown)
VH: QVQLQQSGGGLVQAGGSLRLSCAASGFTFTSYAMSWVRQAPGKGLEWVATISDGDSYSYFPDSVKDRFIISRDNAKNSLFLQMNSLRAEDTAVYYCARDRIYGSVQYYAMDYWGRGTLVTVSS
VL: DIVLTQSPASLAVSLGQRATISCRASESVEFSGTSLMQWYQQRPGLPPKLLIYAASNVESGVPARFSGSGSGTDFSLNIHPVEEDDIAMYFCQQSRKLPYTFGGGTKLEIN
Consider B11, for which the “Signal (FLU)” value came to 2.69e+06 FLU.

B12: VHg2/VLg5 (antibody, human IgG1, V domains shown)
VH: QMQLVQSGGGLVKPGGSLRLSCAASGFTFSSYAMSWIRQAPGKGLEWVSTISDGDSYSYFPDSVKDRFTISRDNAKNSLYLQMNSLRAEDTAVYYCTRDRIYGSVQYYAMDYWGRGTLVTVSS
VL: EIVLTQSPGTLSLSPGERGTLSCRASESVEFSGTSLMQWYQQKPGQAPRLLIYAASNVESGIPDRFSGSGSETDFTLTISRLEPEDLAVYYCQQSRKLPYTFGQGTRLEIK
Consider B12, for which the “Signal (FLU)” value came out at 2.52e+06 FLU.

B13: VHg5/VLg5 (antibody, human IgG1, V domains shown)
VH: QVQLQQSGGGLVQAGGSLRLSCAASGFTFTSYAMSWVRQAPGKGLEWVATISDGDSYSYFPDSVKDRFIISRDNAKNSLFLQMNSLRAEDTAVYYCARDRIYGSVQYYAMDYWGRGTLVTVSS
VL: EIVLTQSPGTLSLSPGERGTLSCRASESVEFSGTSLMQWYQQKPGQAPRLLIYAASNVESGIPDRFSGSGSETDFTLTISRLEPEDLAVYYCQQSRKLPYTFGQGTRLEIK
As to B13, the “Signal (FLU)” value was 2.42e+06 FLU.

B14: VHg1/mVL (antibody, human IgG1, V domains shown)
VH: QVQLVQSGGGLVQPGGSLRLSCAASGFTFSSYAMSWVRQAPGKGLEWVSTISDGDSYSYFPDSVKDRFTISRDNSKNTLYLQMNSLRAEDTSVYYCARDRIYGSVQYYAMDYWGQGTLVTVSS
VL: DIVLTQSPASLAVSLGQRATISCRASESVEFSGTSLMQWYQQRPGLPPKLLIYAASNVESGVPARFSGSGSGTDFSLNIHPVEEDDIAMYFCQQSRKLPYTFGGGTKLEIN
For the molecule B14, the “Signal (FLU)” value is 2.43e+06 FLU.

B15: VHg6/mVL (antibody, human IgG1, V domains shown)
VH: QVQLQQSGGGLVQPGGSLRLSCAASGFTFSSYAMSWVRQAPGKGLEWVATISDGDSYSYFPDSVKDRFTISRDNARNSLYLQMNSLRAEDTAVYYCARDRIYGSVQYYAMDYWGRGTLVTVSS
VL: DIVLTQSPASLAVSLGQRATISCRASESVEFSGTSLMQWYQQRPGLPPKLLIYAASNVESGVPARFSGSGSGTDFSLNIHPVEEDDIAMYFCQQSRKLPYTFGGGTKLEIN
As to B15, the “Signal (FLU)” value was 2.6e+06 FLU.
